Measurements taken from publication PMC6595482 (Molecular microbiology, 2018).

Molecular target: E. coli RNA polymerase (E. coli) (UniProt P0A7Z4)
Sequence (P0A7Z4 whole entry, looked up): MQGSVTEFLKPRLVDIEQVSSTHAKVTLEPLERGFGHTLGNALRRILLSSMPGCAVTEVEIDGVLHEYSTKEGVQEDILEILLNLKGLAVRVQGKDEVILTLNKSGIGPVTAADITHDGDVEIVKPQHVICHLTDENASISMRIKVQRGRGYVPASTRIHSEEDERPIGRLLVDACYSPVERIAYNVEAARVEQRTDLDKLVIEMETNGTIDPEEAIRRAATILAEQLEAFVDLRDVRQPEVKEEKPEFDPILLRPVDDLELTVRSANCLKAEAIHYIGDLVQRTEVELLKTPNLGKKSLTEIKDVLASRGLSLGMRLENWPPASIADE

B1: Escherichia coli RfaH (natural protein)
chain: MQSWYLLYCKRGQLQRAQEHLERQAVNCLAPMITLEKIVRGKRTAVSEPLFPNYLFVEFDPEVIHTTTINATRGVSHFVRFGASPAIVPSAVIHQLSVYKPKDIVDPATPYPGDKVIITEGAFEGFQAIFTEPDGEARSMLLLNLINKEIKHSVKNTEFRKL
Exo III footprinting of the upstream boundary of the ops TEC (100 nM RfaH): 7 nt
